According to US8741844B2, “Use of mutated antithrombins for treating or preventing coagulation disorders” (Universite Paris-Sud XI, priority 2007, dated 2014):

Legend:
[1] = test system: pentasaccharide bound murine antithrombin (plasma anti-Xa activity); test: Anti factor Xa assay in mouse plasma supplemented with Fondaparinux; type: biochemical
Method: During the animal experimentation (see detailed protocol below), human mutated antithrombins compete with murine antithrombin for their binding to the pentasaccharide. Thus, preliminary in vitro assays are performed to determine the human mutated antithrombin concentration necessary to compete with the murine antithrombin present in mouse plasma supplemented with Fondaparinux.
These experiments are performed as described in section II-b, using mouse plasma instead of human plasma.

[2] = test system: pentasaccharide bound plasma antithrombin (plasma anti-factor Xa activity), HUVEC surface; test: Rotachrom heparin anti factor Xa assay after pre-incubation of pentasaccharide containing plasma-mutated antithrombin mixture on HUVEC surface; type: cell-based, human; details: for virtual pentasaccharide concentration (residual anti-factor Xa activity): 3 μg/mL pentasaccharide
Method: Finally to evaluate effect of mutated antithrombin on anti-factor Xa activity in conditions as close as possible to in vivo conditions, Rotachrom® heparin method is used to test anti-factor Xa activity in plasma pre-incubated with mutated antithrombin (0-0.6 g/L, preferably 0.15-0.6 g/L in kinetic buffer), during 30 min at 37° C. on human umbilical vein endothelial cells (HUVEC) in culture. Cells are inoculated at 20 000 cells/cm^2 in 96 well plate and grown to confluence for 24 hours in EGM-2 media (Clonetics, Cambrex). After two wash with phosphate buffer saline (Gibco, Invitrogen) cells are starved for 4 hours in EBM-2 media (Clonetics, Cambrex) and then washed again twice in phosphate buffer saline to prevent excess contamination with heparin present in the culture medium. HUVEC coated wells are then used for 30 min incubation of pentasaccharide containing plasma-mutated antithrombin mixture (125 μl/cm^2) before Rotachrom® heparin assay
To evaluate the role of blood-vessel endothelium, or more precisely, the role of glycosamino-glycans exposed on endothelial cell surface, on competition between natural antithrombin and mutated antithrombin for pentasaccharide binding, the same experiment as described above is done but with pre-incubation of pentasaccharide containing plasma-mutated antithrombin mixture on HUVEC surface (FIG. 8).

[3] = test system: pentasaccharide bound plasma antithrombin (plasma anti-factor Xa activity); test: Rotachrom heparin anti factor Xa assay in pentasaccharide containing human plasma (competition with plasma antithrombin for pentasaccharide binding); type: biochemical; details: for virtual pentasaccharide concentration (residual anti-factor Xa activity): human plasma pool with 3 μg/ml pentasaccharide; for effect on anti-Xa activity of pentasaccharide containing plasma sample: human plasma, pre-incubation 30 min at 37° C.
Method: Anti factor Xa inhibitory activity of mutated antithrombins AT-R393H(SEQ ID NO: 4), AT-Pro394 (SEQ ID NO: 6), AT-ΔR393-5394 (SEQ ID NO: 18), AT-ΔR393 (SEQ ID NO: 8), AT-ΔS394 (SEQ ID NO: 10), AT-N135Q-R393H(SEQ ID NO: 14), AT-N135Q-Pro394 (SEQ ID NO: 16), AT-N135Q-ΔR393-S394 (SEQ ID NO: 24), AT-N135Q-ΔR393 (SEQ ID NO: 20), AT-N135Q-ΔS394 (SEQ ID NO: 22) is measured in pentasaccharide containing plasma. The plasma concentrations of pentasaccharides are defined on the basis on those measured in patients treated by the pentasaccharide under the conditions of a regular (curative) use of this molecule or in patients presenting an overdose of this drug, knowing that the optimal equilibrium concentration is 1.20-1.26 mg/L and the minimal equilibrium concentration is 0.46-0.62 mg/L during a curative pentasaccharide treatment (monograph, Arixtra®).
The anti factor Xa assay is performed using the Rotachrom® heparin method (Stago) adaptated for absorbance reading on a microplate reader (Dynatech MR 5000), or a STA analyser (Stago).
The procedure consists in mixing 30 μl of pentasaccharide containing plasma sample diluted four times in kinetic buffer, with 75 μl of chromogenic substrate (1 mM, provided in Rotachrom® heparin kit). After 4 min incubation, 75 μl of bovine factor Xa (24 nM, Rotachrom® heparin kit) is added to the plasma-substrate mixture. The factor Xa activity is measured a 405 nm absorbance increase, resulting from cleavage of the chromogenic substrate, using a microplate reader (Dynatech MR 5000). The rate constant (k), proportional to anti-factor Xa activity, is obtained by fitting the substrate hydrolysis curve to equation (3) or (3′).
Firstly, the assay is calibrated in citrated (0.105 M) normal human plasma containing pentasaccharide concentrations ranging from 0 to 3 mg/L. A standard curve is generated and anti-factor Xa activity is expressed as mg of pentasaccharide per liter of plasma.
Secondly, to evaluate the anti factor Xa inhibitory activity of mutated antithrombins, the mutated antithrombin (0-0.6 g/L, preferably 0.15-0.6 g/L, final concentration, in kinetic buffer) is pre-incubated with an equal volume of pentasaccharide (0-3 mg/L, preferably 1-3 mg/L) containing plasma samples, during 30 min at 37° C.
Under these conditions, the mutated antithrombin concentration range from one to four times that of the plasma antithrombin level, which is compatible with a therapeutic use of antithrombin. Indeed, very high doses of mutated antithrombin, with a 5 fold increase in plasma antithrombin level, have already been used during clinical trials without side effects (Leitner J M, Firbas C, Mayr F B, Reiter R A, Steinlechner B, Jilma B., Recombinant human antithrombin inhibits thrombin formation and interleukin 6 release in human endotoxemia. Clin Pharmacol Ther. 2006 January; 79(1):23-34). Anti factor Xa inhibitory activity is then evaluated as previously described.
To estimate whether mutated antithrombin can be used as reversal of pentasaccharide in case of over-dosing, AT-N135Q-R393H(SEQ ID NO: 14) and AT-N135Q-Pro394 (SEQ ID NO: 16) are tested in Rotachrom® heparin assay for their ability to restore factor Xa activity. Under conditions of treatment for prevention of venous thromboembolic events, optimal pentasaccharide concentration ranges between 1.2 and 1.26 μg/mL in plasma. To mimic an over-dosing, pentasaccharide is added to human plasma pool at concentration of 3 μg/ml. Rotachrom® heparin assay is then performed by incubation of plasma over-dosed with pentasaccharide in the presence of mutated antithrombin in a ratio 1/1, 2/1, and 4/1 compared to plasma antithrombin concentration (i.e. 0.15, 0.3, 0.6 g/l). In this ex vivo assay, anti-factor Xa activity is proportional to the amount of pentasaccharide bound natural antithrombin present in tested plasma, which amount is directly proportional to pentasaccharide concentration in plasma. […]

[4] = mutated antithrombin ratio 1/1 to plasma antithrombin (0.15 g/l)

Row | Molecule | effect on anti-Xa activity of pentasaccharide contained in mouse plasma [1] | virtual pentasaccharide concentration (residual anti-factor Xa activity) ([2]; ratio 1/1) [µg/mL] | virtual pentasaccharide concentration (residual anti-factor Xa activity) ([2]; ratio 2/1) [µg/mL] | virtual pentasaccharide concentration (residual anti-factor Xa activity) ([2]; ratio 4/1) [µg/mL] | virtual pentasaccharide concentration (residual anti-factor Xa activity) [3, 4] [µg/mL] | virtual pentasaccharide concentration (residual anti-factor Xa activity) ([3]; ratio 2/1 (0.3 g/l)) [µg/mL] | virtual pentasaccharide concentration (residual anti-factor Xa activity) ([3]; ratio 4/1 (0.6 g/l)) [µg/mL] | effect on anti-Xa activity of pentasaccharide containing plasma sample [3] | effect on anti-factor Xa activity of pentasaccharide ([2]; over-dosing conditions) | virtual pentasaccharide concentration at 2 or 4 fold molar excess compared to natural antithrombin ([3]; human plasma with 3 μg/ml pentasaccharide) | effect on anti-factor Xa activity at concentration equal to plasmatic antithrombin concentration ([3]; human plasma with 3 μg/ml pentasaccharide, ratio 1/1)
1 | AT-N135Q-R393H: human antithrombin with substitution at 393 by Histidine and at 135 by Glutamine | significant decrease | 1.66 | 0.91 | 0.26 | 1.04 | 0.49 | 0.29 | significant decrease | – | – | –
2 | AT-N135Q-Pro394: human antithrombin with Proline inserted between 393 and 394 and substitution at 135 by Glutamine (protein, listed as Homo sapiens) HGSPVDICTAKPRDIPMNPMCIYRSPEKKATEDEGSEQKIPEATNRRVWELSKANSRFATTFYQHLADSKNDNDNIFLSPLSISTAFAMTKLGACNDTLQQLMEVFKFDTISEKTSDQIHFFFAKLNCRLYRKAQKSSKLVSANRLFGDKSLTFNETYQDISELVYGAKLQPLDFKENAEQSRAAINKWVSNKTEGRITDVIPSEAINELTVLVLVNTIYFKGLWKSKFSPENTRKELFYKADGESCSASMMYQEGKFRYRRVAEGTQVLELPFKGDDITMVLILPKPEKSLAKVEKELTPEVLQEWLDELEEMMLVVHMPRFRIEDGFSLKEQLQDMGLVDLFSPEKSKLPGIVAEGRDDLYVSDAFHKAFLEVNEEGSEAAASTAVVIAGRPSLNPNRVTFKANRPFLVFIREVPLNTIIFMGRVANPCVK | significant decrease | 1.69 | 0.94 | 0.27 | 1.16 | 0.59 | 0.36 | significant decrease | – | – | –
3 | AT-Pro394: human antithrombin with insertion of a Proline between positions 393 and 394 (protein, listed as Homo sapiens) HGSPVDICTAKPRDIPMNPMCIYRSPEKKATEDEGSEQKIPEATNRRVWELSKANSRFATTFYQHLADSKNDNDNIFLSPLSISTAFAMTKLGACNDTLQQLMEVFKFDTISEKTSDQIHFFFAKLNCRLYRKANKSSKLVSANRLFGDKSLTFNETYQDISELVYGAKLQPLDFKENAEQSRAAINKWVSNKTEGRITDVIPSEAINELTVLVLVNTIYFKGLWKSKFSPENTRKELFYKADGESCSASMMYQEGKFRYRRVAEGTQVLELPFKGDDITMVLILPKPEKSLAKVEKELTPEVLQEWLDELEEMMLVVHMPRFRIEDGFSLKEQLQDMGLVDLFSPEKSKLPGIVAEGRDDLYVSDAFHKAFLEVNEEGSEAAASTAVVIAGRPSLNPNRVTFKANRPFLVFIREVPLNTIIFMGRVANPCVK | significant decrease | – | – | – | – | – | – | significant decrease | decreases anti-factor Xa activity | decreases to a level comparable to curative pentasaccharide treatment | significantly decrease
